Measured values as given in patent US20250289871A1.

Target: SARS-CoV-2 Delta + T51I + T95I spike protein (authentic virus) (SARS-CoV-2), P0DTC2
Test: cell-based or functional assay

B1: RQ43-GL-H-LO1 (TM-YTE) (antibody, V domains shown)
VH: EVQLVESGGGLVQPGRSLRLSCAASGFPFDDYAIHWVRLAPGKGLEWVSSISWDSGSIGYADSVKGRFTISRDNAKNSLYLQMNSLRAEDTALYYCAKGAFPGYSSGWYYGLEVWGQGTTVTVSS
VL: QSVVTQPPSASGSLGQSVTISCTGTSSDVGGYNYVSWYQQHPGKAPKLMIFEVSKRPSGVPDRFSGSKSGNTASLTVSGLQAEDEADYYCSSYAGNKGVFGGGTKLTVL
  Authentic Virus Neutralization IC50: 0.021 mg/L
